According to US20090214574A1:

Legend:
[1] = target: human CD16A-Fc^48R/158F fusion protein (human) (UniProt P08637); experiment: surface plasmon resonance
[2] = target: human CD16A-Fc^48R/158F fusion protein (human) (UniProt P08637); experiment: SPR, BIAcore 2000, antigen immobilized, koff/kon
[3] = target: human CD16A-Fc^48R/158F fusion protein (human) (UniProt P08637); experiment: SPR, BIAcore 2000, antigen immobilized
[4] = target: human CD16A-Fc^48R/158F fusion protein (human) (UniProt P08637); experiment: affinity measurement, method not named for the TandAb
[5] = target: human CD16A-Fc^48R/158V fusion protein (human) (UniProt P08637); experiment: as above
Sequence of human CD16A-Fc^48R/158V fusion protein (human) (P08637 17-208 L66R/F176V limits assumed): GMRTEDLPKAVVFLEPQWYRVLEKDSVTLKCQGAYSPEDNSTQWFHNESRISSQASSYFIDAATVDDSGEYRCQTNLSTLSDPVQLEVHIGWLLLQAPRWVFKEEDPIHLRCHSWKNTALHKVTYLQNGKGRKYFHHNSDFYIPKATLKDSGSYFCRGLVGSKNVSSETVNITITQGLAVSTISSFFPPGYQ

Sequence of human CD16A-Fc^48R/158F fusion protein (human) (P08637 17-208): as the sequence (P08637 17-208 L66R/F176V limits assumed) above, with R50L, V160F counted along it

Row | Kd [1] | Kd [2] | koff [3] | kon [3] | fold improvement in affinity over the 4-LS21 scFv [4] | fold improvement in affinity over the 4-LS21 scFv [5] | Binder
1 | 50 nM | 45.3 nM | 0.00323 s⁻¹ | 71300 M⁻¹ s⁻¹ |  |  | affinity matured anti-CD16A scFv 4-LS21 (scFv) scFv: EVQLVQSGAEVKKPGESLKVSCKASGYTFTSYYMHWVRQAPGQGLEWMGIINPSGGSTSYAQKFQGRVTMTRDTSTSTVYMELSSLRSEDTAVYYCARGSAYYYDFADYWGQGTLVTVSSGSASAPTLKLEEGEFSEARVQPVLTQPSSVSVAPGQTATISCGGHNIGSKNVHWYQQRPGQSPVLVIYQDNKRPSGIPERFSGSNSGNTATLTISGTQAMDEADYYCQVWDNYSVLFGGGTKLTVLGQPKAAPSVTLFPPSAAAGSEQKLISEEDLNSHHHHHH
2 |  |  |  |  | > 10 fold | > 10 fold | CD30×CD16^LS21 TandAb/(G2S)3 (bispecific antibody, part only; not given: anti-CD30 VH and VL, His tag, not shown: small tags and cut ends) chain, part: EEVQLVQSGAEVKKPGESLKVSCKASGYTFTSYYMHWVRQAPGQGLEWMGIINPSGGSTSYAQKFQGRVTMTRDTSTSTVYMELSSLRSEDTAVYYCARGSAYYYDFADYWGQGTLVTVSSGGSGGSGGSGGSGGSGGSGGSGGSGGSQPVLTQPSSVSVAPGQTATISCGGHNIGSKNVHWYQQRPGQSPVLVIYQDNKRPSGIPERFSGSNSGNTATLTISGTQAMDEADYYCQVWDNYSVLFGGGTKLTVL
